Data from PMC11275975, “Structural basis for transcription activation through cooperative recruitment of MntR” (Research Square, 2024).

Biological target: the molecule itself
Test: mass photometry; MntR alone, in the presence of 1 mM Mn2+; single peak; monomers to dimer

B1: manganese transport regulator (MntR) from B. subtilis, wild type (natural protein)
chain: MTTPSMEDYIEQIYMLIEEKGYARVSDIAEALAVHPSSVTKMVQKLDKDEYLIYEKYRGLVLTSKGKKIGKRLVYRHELLEQFLRIIGVDEEKIYNDVEGIEHHLSWNSIDRIGDLVQYFEEDDARKKDLKSIQKKTEHHNQ
notes: MntR, manganese transport regulator, Bacillus subtilis; dimer of 142-residue subunits; the cryo-EM maps show residues 3-142; Expressed from the pSMT3 vector as a His6-SUMO fusion; the tag was cut off with ULP-1; Assayed with 1 mM Mn2+ (two Mn2+ ions per subunit); also called WT MntR; MntR2 (dimer); source: E. coli BL21(DE3)NiCo, purified (TALON, ULP-1 cleavage, Ni-NTA)
  stoichiometry N: 2
